# Results from patent US20040072168A1, “Novel deoxynucleoside kinase enzyme variants” (priority 2000, published 2004).
# B1: Dm-dNK: wild-type Drosophila melanogaster deoxyribonucleoside kinase (SEQ ID NO: 1) (protein)
# chain: MAEAASCARKGTKYAEGTQPFTVLIEGNIGSGKTTYLNHFEKYKNDICLLTEPVEKWRNVNGVNLLELMYKDPKKWAMPFQSYVTLTMLQSHTAPTNKKLKIMERSIFSARYCFVENMRRNGSLEQGMYNTLEEWYKFIEESIHVQADLIIYLRTSPEVAYERIRQRARSEESCVPLKYLQELHELHEDWLIHQRRPQSCKVLVLDADLNLENIGTEYQRSESSIFDAISSNQQPSPVLVSPSKRQRVAR
# modifications: Drosophila melanogaster; CDS (1)..(750)
# Key:
# [1] = system: TK deficient E. coli strain KY895; test: Determination of LD100 of nucleoside analogues on M9 plates, E. coli KY895 transformed with kinase variant plasmids; type: cell-based; details: KY895 expressing the variant
# Excerpt: The mutagenized PCR fragments were purified by the PCR Kit from Boehringer Mannhein, cut with BamHI and EcoRI and sub-cloned into the multiple cloning site of the pGEX-2T plasmid vector. The TK deficient E. coli strain KY895 [F tdk-1 ilv] [Igarashi K, Hiraga S & Yura T: A deoxythymidine kinase deficient mutant of Eschericha coli. II. Mapping and transduction studies with phage Φ80; Genetics 1967 57 643-6541, was electro-transformed with the ligation mix, using standard techniques, and plated on LB-ampicillin (100 μg/ml) plates.
# Overnight cultures of these colonies were diluted 200-fold in 10% glycerol and 2 μl drops of the dilution were spotted on M9 minimal medium plates [Ausubel F, Brent R, Kingston R E, Moore D D, Seidman J G, Smith J A & Struhl K (Eds.): Short protocols in molecular biology; Wiley, USA, 3rd Edition, 1995, p.1-2] supplemented with 0.2% glucose, 40 μg/ml isoleucine, 40 μg/ml valine, 100 μg/ml ampicillin and with or without nucleoside analogues.
# All clones with increased sensitivity towards at least one nucleoside analogue were tested on M9 plates with logarithmic dilution of the nucleoside analogues to determine the lethal dose (LD100) of the nucleoside analogues, at which no growths of bacteria could be seen.
# Plates were prepared by mixing the medium with the analogues at the lowest temperature possible, before pouring the plates.
# [2] = cited from earlier work
molecule,measurement,setting,value
B1,LD100 araC,"[1]; lethal dose (no growth of bacteria) of araC, range 3.16-1000 μM",1000 µM
same,LD100 2CdA,"[1]; lethal dose of 2CdA, range 0.0316-100 μM, second line of last column",100 µM
same,LD100 AZT,"[1]; lethal dose of AZT, range 0.01-100 μM",100 µM
same,LD100 araA,"[1]; lethal dose of araA, range 10-1000 μM, third line of last column",>1000 µM
same,LD100 ddA,"[1]; lethal dose of ddA, range 0.316-31.6 μM",31.6 µM
same,LD100 ddC,"[1]; lethal dose of ddC, range 10-3500 μM, first line of last column",>3500 µM
same,"catalytic rate of deoxyribonucleoside phosphorylation, higher than reported for any of the mammalian deoxyribonucleoside kinases",[2]; depending on the substrate,"4-20,000 fold"
same,"turnover of thymidine, higher than catalysed by HSV1 thymidine kinase","[2]; thymidine, versus HSV1-TK",70 fold
